Experiments:
Test in all cases: bead flow cytometry
[1] = target: mouse FGFR3b-Fc (mouse, UniProt Q61851-2 21-371)
[2] = target: human FGFR3c-Fc (human, UniProt P22607 23-375)
[3] = target: human FGFR3b-Fc (human, UniProt P22607-2 23-377)
[4] = target: human FGFR1c-His (human, UniProt P11362 22-376)
[5] = target: mouse FGFR2c-Fc (mouse, UniProt P21803 22-377)
[6] = target: mouse FGFR1c-Fc (mouse, UniProt P16092 22-376)
[7] = target: human FGFR2c-His (human, UniProt P21802 22-377)
[8] = target: mouse FGFR3c-Fc (mouse, UniProt Q61851 21-369)

Sequence of mouse FGFR2c-Fc (P21803 22-377): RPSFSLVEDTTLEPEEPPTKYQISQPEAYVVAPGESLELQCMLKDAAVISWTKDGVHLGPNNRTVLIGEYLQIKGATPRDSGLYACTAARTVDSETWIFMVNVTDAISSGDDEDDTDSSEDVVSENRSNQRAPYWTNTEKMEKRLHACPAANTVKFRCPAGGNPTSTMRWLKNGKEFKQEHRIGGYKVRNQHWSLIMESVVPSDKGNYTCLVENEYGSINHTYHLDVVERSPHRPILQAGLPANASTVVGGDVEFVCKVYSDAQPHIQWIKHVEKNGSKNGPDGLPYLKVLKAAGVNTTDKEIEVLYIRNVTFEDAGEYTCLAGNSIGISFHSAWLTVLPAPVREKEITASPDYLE
Sequence of human FGFR1c-His (P11362 22-376): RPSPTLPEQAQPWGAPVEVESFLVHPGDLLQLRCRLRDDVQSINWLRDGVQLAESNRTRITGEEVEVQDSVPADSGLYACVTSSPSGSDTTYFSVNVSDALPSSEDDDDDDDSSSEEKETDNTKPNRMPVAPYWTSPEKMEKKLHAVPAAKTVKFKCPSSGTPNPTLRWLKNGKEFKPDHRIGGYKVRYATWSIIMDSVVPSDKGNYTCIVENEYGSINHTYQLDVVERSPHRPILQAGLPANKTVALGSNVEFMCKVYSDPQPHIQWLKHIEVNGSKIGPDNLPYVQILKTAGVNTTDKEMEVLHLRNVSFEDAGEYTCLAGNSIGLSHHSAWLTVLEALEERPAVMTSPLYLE
Sequence of human FGFR2c-His (P21802 22-377): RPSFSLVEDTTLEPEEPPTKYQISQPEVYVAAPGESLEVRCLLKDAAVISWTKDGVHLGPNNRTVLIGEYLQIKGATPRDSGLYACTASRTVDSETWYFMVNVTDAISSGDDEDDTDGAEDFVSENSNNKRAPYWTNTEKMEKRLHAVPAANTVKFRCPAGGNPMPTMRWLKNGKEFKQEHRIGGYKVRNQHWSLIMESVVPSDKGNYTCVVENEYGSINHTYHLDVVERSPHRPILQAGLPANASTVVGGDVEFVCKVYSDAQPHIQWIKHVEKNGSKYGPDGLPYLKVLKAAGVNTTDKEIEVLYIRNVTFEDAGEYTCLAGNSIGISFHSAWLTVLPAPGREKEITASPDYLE
Sequence of mouse FGFR1c-Fc (P16092 22-376): as the sequence (P11362 22-376) above, with S3A, A15V, F22L, A53V, Q68R, V71I, M128R counted along it

Q: For GCCGAUGGUUUUGUGGCCGUUUGAGGUUCCUACGGC (structured_RNA, 2'-fluoro C and U; 3' inverted dT (not in string)) [iR3], which Kd [1] is on record?
A: Its Kd is about 62 nM.

Q: What about the Kd [2] of the same binder?
A: The Kd was 55.5 ± 8.4 nM.

Q: What about the Kd [3] of the same binder?
A: The Kd was about 48 nM.

Q: Does GCCGAUGGUUUUGUGGCCGUUUGAGGUUCCUACGGC (structured_RNA, 2'-fluoro C and U; 3' inverted dT (not in string)) [iR3] bind [4]?
A: Result: no binding

Q: Does GCCGAUGGUUUUGUGGCCGUUUGAGGUUCCUACGGC (structured_RNA, 2'-fluoro C and U; 3' inverted dT (not in string)) [iR3] bind [5]?
A: Result: no binding

Q: Does GCCGAUGGUUUUGUGGCCGUUUGAGGUUCCUACGGC (structured_RNA, 2'-fluoro C and U; 3' inverted dT (not in string)) [iR3] bind [6]?
A: Result: no binding

Q: Does GCCGAUGGUUUUGUGGCCGUUUGAGGUUCCUACGGC (structured_RNA, 2'-fluoro C and U; 3' inverted dT (not in string)) [iR3] bind [7]?
A: Result: no binding

Q: What about the Kd [8] of the same binder?
A: The Kd was 36.6 ± 7.1 nM.

Source: article PMC6661505
